{
  "source": "patent US20140120095A1",
  "about": "(Boehringer Ingelheim, published 2014)",
  "key": {"[1]": {"molecular_target": "T1, human DLL1 (human, UniProt O00548 18-545, limits assumed)", "T1 construct": "also called hDLL1", "T1 sequence (looked up)": "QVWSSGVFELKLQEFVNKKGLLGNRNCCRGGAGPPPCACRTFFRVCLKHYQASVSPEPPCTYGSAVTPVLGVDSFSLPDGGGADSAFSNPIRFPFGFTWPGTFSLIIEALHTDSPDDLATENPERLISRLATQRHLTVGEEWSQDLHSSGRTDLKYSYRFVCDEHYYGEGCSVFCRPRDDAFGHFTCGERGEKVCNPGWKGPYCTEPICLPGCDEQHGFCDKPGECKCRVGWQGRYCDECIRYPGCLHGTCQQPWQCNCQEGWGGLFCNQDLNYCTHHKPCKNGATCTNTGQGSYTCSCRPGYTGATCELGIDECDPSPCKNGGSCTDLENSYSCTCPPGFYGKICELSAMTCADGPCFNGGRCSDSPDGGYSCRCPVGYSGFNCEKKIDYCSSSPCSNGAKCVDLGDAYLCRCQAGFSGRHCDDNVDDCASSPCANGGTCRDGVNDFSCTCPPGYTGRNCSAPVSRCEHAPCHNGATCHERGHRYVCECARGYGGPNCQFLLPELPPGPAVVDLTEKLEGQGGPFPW", "assay": "ELISA, coated human DLL1", "description": "(§1) Absence of binding to homologous ligands human DLL1 and human Jagged-1 is assessed via solid phase binding assay (ELISA). In brief, human DLL1 (Alexis, San Diego, Calif., USA) and human Jagged-1 (Alexis, San Diego, Calif., USA) are coated overnight at 4° C. at 1 μg/mL in a 96-well MaxiSorp plate (Nunc, Wiesbaden, Germany). Wells are blocked with a casein solution (1% in PBS). VHHs are applied as dilution series and binding is detected using a mouse anti-myc (Roche) and an anti-mouse-AP conjugate (Sigma, St. Louis, Mo., USA)."}, "[2]": {"molecular_target": "T2, human Jagged-1 (human, UniProt P78504 34-1067, limits assumed)", "T2 construct": "also called hJagged-1; hJAG1", "assay": "ELISA, coated human Jagged-1", "description": "as §1"}, "[3]": {"molecular_target": "T3, recombinant human DLL4 (human, UniProt Q9NR61 25-522)", "T3 construct": "also called rhDLL4; hDLL4", "assay": "binding ELISA, coated rhDLL4", "description": "(§2) In order to determine cross-reactivity to mouse DII4 a binding ELISA is performed. […] Wells are blocked with a casein solution (1% in PBS). VHHs are applied as dilution series and binding is detected using a mouse anti-myc (Roche) and an anti-mouse-AP conjugate (Sigma, St Louis, Mo., USA) (FIG. 7 A-H). As reference, binding to human DII4 is measured."}, "[4]": {"molecular_target": "T4, recombinant mouse DLL4 (mouse, UniProt Q9JI71 27-532)", "T4 construct": "extracellular domain; also called rmDLL4; mDLL4", "T4 sequence (Q9JI71 27-532)": "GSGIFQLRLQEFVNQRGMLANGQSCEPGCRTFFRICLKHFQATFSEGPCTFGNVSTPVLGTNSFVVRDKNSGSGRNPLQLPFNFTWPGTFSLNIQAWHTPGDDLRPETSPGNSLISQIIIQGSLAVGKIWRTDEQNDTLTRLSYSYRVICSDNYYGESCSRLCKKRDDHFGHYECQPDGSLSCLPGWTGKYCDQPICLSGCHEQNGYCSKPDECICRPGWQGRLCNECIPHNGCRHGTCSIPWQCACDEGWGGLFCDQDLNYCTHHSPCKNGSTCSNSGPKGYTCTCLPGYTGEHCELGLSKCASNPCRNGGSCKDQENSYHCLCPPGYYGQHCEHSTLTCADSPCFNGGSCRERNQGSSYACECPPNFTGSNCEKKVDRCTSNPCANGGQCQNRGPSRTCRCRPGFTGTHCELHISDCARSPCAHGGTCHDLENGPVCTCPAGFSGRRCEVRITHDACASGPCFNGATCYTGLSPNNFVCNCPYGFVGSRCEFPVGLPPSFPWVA", "assay": "binding ELISA, coated rmDLL4", "description": "as §2"}, "[5]": {"molecular_target": "T3, recombinant human DLL4", "assay": "Biacore off-rate, periplasmic extract"}, "[6]": {"molecular_target": "T3, recombinant human DLL4", "assay": "hDLL4 ELISA screen, periplasmic extract"}, "[7]": {"molecular_target": "T5, human DLL4 overexpressed on cells (human, UniProt Q9NR61 27-685)", "T5 construct": "full length human DLL4 on CHO or HEK293 cells; also called CHO-hDLL4; CHO-hDII4", "assay": "competitive FMAT, hNotch1-Fc on CHO-hDLL4"}, "[8]": {"molecular_target": "T3, recombinant human DLL4", "assay": "competition AlphaScreen, biot-hDLL4/hNotch1-Fc; partial inhibitor"}},
  "data": [
    {"binder": "DLLBII19F04 (VHH) VHH: EVQLVESGGGLVQAEGSLRLSCAASGSTFSTYAMAWYRQAPGKQRELVAGISFDGSTHYAESVKGRFTISRDDAKNTVSLQMNSLKPEDAAVYYCYSVHPSTGFGSWGQGTQVTVSS", "values": [
      {"measurement": "binding result", "setting": "[1]", "result": "no binding"},
      {"measurement": "binding result", "setting": "[2]", "result": "no binding"},
      {"measurement": "EC50", "setting": "[3]", "result": 0.9, "unit": "nM"},
      {"measurement": "EC50", "setting": "[4]", "result": 0.8, "unit": "nM"},
      {"measurement": "koff", "setting": "[5]", "result": 0.0011, "unit": "s⁻¹"},
      {"measurement": "% inh", "setting": "[6]", "result": 98, "unit": "%"},
      {"measurement": "IC50", "setting": "[7]", "result": 33, "unit": "nM"},
      {"measurement": "IC50", "setting": "[8]", "result": 0.05, "unit": "nM"}
    ]}
  ]
}
